This experiment addresses T1, amyloid β protein fragment 1–42 (synthetic Aβ peptide, oligomer preparation) (UniProt P05067 672-713).
T1 construct: amyloid beta 1-42, the cut product of the amyloid precursor protein; One preparation that holds monomeric and oligomeric forms, which are seen as separate bands on non-reducing SDS-PAGE; also called Aβ1–42; Aβ oligomers; source: synthetic peptide; oligomers prepared from hexafluoroisopropanol film, DMSO, Hams F-12, 4 °C for 24 h, supernatant after 14,000 x g
As to the kind of experiment: pull-down; glutathione beads coated with 500 ng GST0 or GST fusion protein, incubated with 100 pM Aβ oligomers in 50 mM Tris-HCl pH7.5, 5 mM MgCl2, 20 mM KCl, 500 µg/mL BSA for 1 h at RT; washed, eluted under non-reducing conditions, SDS-PAGE and Western blot with 6E10. To be noted: both partners purified. Background: In western blotting, separated proteins are transferred to a membrane and probed.

B1: GST-Rs recombinant fusion protein (integrin β1 signal peptide, amino acids 1–20) (domain or fragment, UniProt P05556 1-20, looked up)
chain: MNLQPIFWIGLISSVCCVFA
notes: signal peptide in the construct; integrin β1 (ITGβ1) amino acids 1-20, PCR from pCMV6-XL5-ITGB1 (Origene); The fragment was cloned through EcoRI sites, so linker residues from the vector are likely; The printed forward primer (ATG AAT TTA CAA CC) encodes M-N-L-Q-P, which fits the human cDNA; also called Rs peptide; recombinant integrin β1 signal peptide
On to B1, for which the binding result is “binds”.
